Experimental data published in patent US20250042943A1, “FAP DETECTION” (THE UNIVERSITY COURT OF THE UNIVERSITY OF EDINBURGH, priority 2021, published 2025).
“Also recorded” adds a separate entry of the source. Where a SMILES comes first, the peptide text is derived from it. [ ]: non-standard residue; d: D form. The star is where a group is joined. 5FAM = O=C1OC2(c3ccc(O)cc3Oc3cc(O)ccc32)c2ccc(C(=O)*)cc21; X1 = CN(C)c1ccc(N=Nc2ccccc2C(=O)*)cc1; AEEA = NCCOCCOCC(=O)O

Tests used:
[1] = Toxicity in rats, intravenous (bolus) dosing for 7 days; type: in vivo; conditions: intravenous (bolus) injection of 0.1 mg for 7 days
Description: The potential toxicity of the FAP probe was assessed by dosing rats with an intravenous (bolus) injection of 0.1 mg of the FAP3 probe for 7 days.

[2] = tested on: NSCLC patient tissue samples; assay: Fluorescence intensity and lifetime imaging (FLIM, KronoScan) of ex vivo NSCLC tissue; type: cell-based, human; conditions: VBP (1:1000) added with FAP3; listed as VBP
Description: For imaging solutions, varying concentrations of rhFAP were prepared in blackened eppendorfs and FAP3 to a final concentration of 5 μm added and imaged as below. For biological specimens, NSCLC patient tissue samples from surgical resection were used fresh or snap frozen and stored at −80 until required. Small fragments (approx. 4 mm^3) incubated at 37° C. in a 96 well plate in phenyl-red free DMEM (Gibco) containing 10% FCS, 1% Penicillin-streptomycin and 1% L-Glutamine. For the inhibitor fragments VBP (1:1000) was added. Samples were then imaged using a clinically tractable novel fluorescence lifetime imaging system, KronoScan, with an imaging fibre providing a 400×400 um field of view. […] This spectrometer contains a 512 channel single photon avalanche diode (SPAD) sensor, allowing for the rapid collection of time resolved spectral fluorescence lifetime data. Fluorescence intensity and lifetime images were collected at 160×160 pixels over a 498-570 nm spectral range with an exposure time of 13 μs per pixel. […]
For each condition the tumour samples were imaged using a fibre placed at the tip of the tissue (baseline), and then again at 10 minute intervals following the additions of equimolar concentrations of probe+/− Inhibitor. […] Each condition and time-point data for both fluorescence intensity and lifetime were collected. […]

[3] = tested on: cancer associated fibroblasts (CAFs) from NSCLC patient samples; assay: Assessment on cancer associated fibroblasts (CAFs); type: cell-based, human; conditions: co-incubated with FAP3
Description: CAFs were isolated from NSCLC patient samples as previously described methods known in the art. Briefly, tissue samples were minced with forceps and incubated for an hour in prewarmed RPMI media (Gibco) containing collagenase IV [2 mg/ml](Sigma) and DNase [0.2 mg/ml](Sigma). Samples were spun at 350 g for 5 minutes and red blood cells were lysed from samples using RBC lysis buffer (BioLegend) in 10 mls for 10 minutes. Following a further spin at 350 g for 5 minutes, cells were seeded in culture flasks in DMEM containing 10% FCS, 1% Penicillin-Streptomycin, 1% L-Glutamine and 10% Insulin Transferrin Selenium (ITS). 24 hours after seeding, non-adherent cells were washed from the flasks. Cells were maintained by standard cell culture methods and by passage 2, the predominant cell type was CAFs, assessed by flow cytometry markers and morphology. CAFs between passage 4-9 were used to assess FAP probes and confirmed to be FAP^hi by flow cytometry.
CAFs were seeded into 96 well plates in a 100 μl media (complete DMEM as described above) at a density of 1×10^5 cells/ml to form a confluent monolayer within 24 hours. Wells containing cells had media removed and then were washed before buffer (DPBS)+/− inhibitors were added with the imaging probes. Immediately after adding imaging probes, the plate was transferred to the prewarmed spectrophotometer as above and read at 480/530 nm for one hour.

[4] = target: rhDPPIV (Homo sapiens, UniProt P27487); assay: Probe cleavage by recombinant human DPPIV (exopeptidase activity); type: biochemical; conditions: probe 5 μM, enzyme 0.1 μg/ml, read 480/530 nm
[5] = target: T1, rhPREP (Homo sapiens, UniProt P48147); assay: Probe cleavage by recombinant human PREP; type: biochemical; conditions: probe 5 μM, enzyme 0.1 μg/ml, read 480/530 nm
T1 sequence (P48147 1-710): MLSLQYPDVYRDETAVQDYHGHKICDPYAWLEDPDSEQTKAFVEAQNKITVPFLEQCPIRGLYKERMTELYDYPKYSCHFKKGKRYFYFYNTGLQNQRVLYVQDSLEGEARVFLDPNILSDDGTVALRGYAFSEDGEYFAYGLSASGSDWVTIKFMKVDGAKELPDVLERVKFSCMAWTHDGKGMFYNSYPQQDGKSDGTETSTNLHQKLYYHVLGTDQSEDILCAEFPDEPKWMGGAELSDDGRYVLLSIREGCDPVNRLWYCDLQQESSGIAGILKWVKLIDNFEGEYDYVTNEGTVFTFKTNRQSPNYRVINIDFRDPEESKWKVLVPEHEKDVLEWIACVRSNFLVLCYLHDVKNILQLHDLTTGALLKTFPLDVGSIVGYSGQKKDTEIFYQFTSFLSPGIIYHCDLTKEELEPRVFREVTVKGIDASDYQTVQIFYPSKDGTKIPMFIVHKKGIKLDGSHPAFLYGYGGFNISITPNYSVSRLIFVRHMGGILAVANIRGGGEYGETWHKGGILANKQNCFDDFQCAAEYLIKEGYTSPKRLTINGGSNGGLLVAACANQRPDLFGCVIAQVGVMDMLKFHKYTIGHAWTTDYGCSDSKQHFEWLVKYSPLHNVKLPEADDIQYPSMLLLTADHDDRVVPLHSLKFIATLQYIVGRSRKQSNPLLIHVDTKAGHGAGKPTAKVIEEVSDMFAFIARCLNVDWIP

[6] = target: T2, rhFAP (Homo sapiens, UniProt Q12884); assay: Probe cleavage by recombinant human FAP (fluorescence read); type: biochemical; conditions: for cleavage by rhFAP: probe 5 μM, enzyme 0.1 μg/ml, read 480/530 nm; for signal (relative fluorescence intensity) with rhFAP: comparison between probe iterations; for FAP specificity (over PREP): from recombinant enzyme assessment
T2 sequence (Q12884 1-760): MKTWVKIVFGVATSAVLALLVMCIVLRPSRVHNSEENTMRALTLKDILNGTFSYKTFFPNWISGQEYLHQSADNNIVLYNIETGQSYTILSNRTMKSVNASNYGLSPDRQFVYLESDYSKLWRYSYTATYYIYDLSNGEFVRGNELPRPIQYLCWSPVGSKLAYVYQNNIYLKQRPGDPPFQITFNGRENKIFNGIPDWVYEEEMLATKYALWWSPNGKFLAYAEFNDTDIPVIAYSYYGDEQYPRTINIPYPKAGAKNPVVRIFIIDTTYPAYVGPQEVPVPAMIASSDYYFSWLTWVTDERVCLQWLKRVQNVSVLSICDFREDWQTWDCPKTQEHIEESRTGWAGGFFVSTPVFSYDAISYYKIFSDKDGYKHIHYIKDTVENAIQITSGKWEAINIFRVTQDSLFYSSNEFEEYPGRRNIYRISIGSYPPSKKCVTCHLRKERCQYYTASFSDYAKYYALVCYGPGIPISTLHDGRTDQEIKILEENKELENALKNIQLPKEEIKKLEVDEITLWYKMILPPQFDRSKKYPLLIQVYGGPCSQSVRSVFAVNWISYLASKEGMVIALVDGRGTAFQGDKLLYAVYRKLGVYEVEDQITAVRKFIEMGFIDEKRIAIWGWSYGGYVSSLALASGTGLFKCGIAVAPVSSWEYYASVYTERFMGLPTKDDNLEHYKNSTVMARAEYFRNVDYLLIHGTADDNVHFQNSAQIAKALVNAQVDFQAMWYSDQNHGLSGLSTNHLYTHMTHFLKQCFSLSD

[7] = tested on: FAP3

Sequence of rhDPPIV (P27487 whole entry): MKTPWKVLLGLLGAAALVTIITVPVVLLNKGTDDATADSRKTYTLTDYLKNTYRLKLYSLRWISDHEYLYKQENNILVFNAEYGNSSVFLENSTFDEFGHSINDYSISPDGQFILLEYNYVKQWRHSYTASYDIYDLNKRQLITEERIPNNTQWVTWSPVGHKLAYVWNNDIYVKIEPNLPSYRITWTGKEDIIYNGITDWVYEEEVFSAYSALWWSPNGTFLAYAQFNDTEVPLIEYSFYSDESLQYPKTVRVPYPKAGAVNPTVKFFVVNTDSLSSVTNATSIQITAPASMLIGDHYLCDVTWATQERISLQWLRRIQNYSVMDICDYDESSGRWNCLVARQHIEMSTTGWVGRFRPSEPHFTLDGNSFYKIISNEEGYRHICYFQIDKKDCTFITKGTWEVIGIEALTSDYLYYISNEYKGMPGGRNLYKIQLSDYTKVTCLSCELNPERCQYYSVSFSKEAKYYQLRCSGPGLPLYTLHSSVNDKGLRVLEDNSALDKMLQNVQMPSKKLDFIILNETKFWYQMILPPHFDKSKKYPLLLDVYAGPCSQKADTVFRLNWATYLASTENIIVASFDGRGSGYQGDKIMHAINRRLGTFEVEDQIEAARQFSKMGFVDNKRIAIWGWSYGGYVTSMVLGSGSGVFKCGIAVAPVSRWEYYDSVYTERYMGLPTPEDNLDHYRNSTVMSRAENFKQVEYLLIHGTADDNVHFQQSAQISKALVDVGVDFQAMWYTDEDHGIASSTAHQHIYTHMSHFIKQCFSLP

| Compound | cleavage by rhFAP [6] | signal (relative fluorescence intensity) with rhFAP [6] | FAP specificity (over PREP) [6] | cleavage by rhPREP [5] | further results |
| --- | --- | --- | --- | --- | --- |
| CC(C)[C@H](NC(=O)[C@@H](N)CCCCNC(=O)c1ccccc1N=Nc1ccc(N(C)C)cc1)C(=O)N[C@H](CO)C(=O)N1CCC[C@H]1C(=O)N[C@@H](CC(N)=O)C(=O)N[C@@H](CCC(N)=O)C(=O)NCC(=O)N[C@@H](CCCCNC(=O)c1ccc2c(c1)C(=O)OC21c2ccc(O)cc2Oc2cc(O)ccc21)C(=O)NCCOCCOCC(=O)N[C@H](CCCCN)C(=O)NCCOCCOCC(=O)N[C@H](CCCCN)C(=O)NCCOCCOCC(=O)N[C@H](CCCCN)C(N)=O [FAP3, Lys(MethylRed)-Val-(D)Ser-Pro-Asn-Gln-Gly-Lys(5-FAM)-[Peg2-(D)Lys]3-NH2] (H-K(X1)V[dS]PNQGK(5FAM)[AEEA][dK][AEEA][dK][AEEA][dK]-NH2) |  |  |  |  | clinical signs [1]: no clinical signs; deaths [1]: no deaths; differences in body weights, body weight gains, food consumption, haematology, coagulation, clinical chemistry, organ weights and macroscopic and microscopic examinations ([1]; compared to a control group): no differences |
| CC(C)[C@H](N)C(=O)N1CCC[C@H]1B(O)O [Val-boroPro] |  |  |  |  | inhibition of FAP3 intensity and lifetime change in NSCLC tissue [2]: inhibition; also recorded: abrogated; inhibition of FAP3 signal in CAFs [3]: inhibition of signal; inhibition of FAP3 signal in CAFs ([3]; listed as VBP): signal was abrogated |
| FAM-Peg2-Gly-Pro-Gly-(D)Pro-(D)Asn-Gln-Lys(MethylRed)-NH2 [FAP1DLi-FAM] | lower rate of cleavage; also recorded: FAP activity was significantly reduced |  |  | cleaves; also recorded: partial reduction in activity | cleavage by rhDPPIV (exopeptidase activity) [4]: Neither FAP1Li-FAM or FAP1 DLi-FAM are cleaved; cleavage by rhPREP ([5]; listed as FAP1 DLi-FAM): still demonstrated PREP cleavage |
| FAM-Peg2-Gly-Pro-Gly-Pro-Asn-Gln-Lys(MethylRed)-NH2 [FAP1Li-FAM] | cleaved rapidly; also recorded: endopeptidase activity | signal intensity of FAP1 is higher |  | cleaved more rapidly; also recorded: endopeptidase activity | cleavage by rhDPPIV (exopeptidase activity) [4]: Neither FAP1Li-FAM or FAP1 DLi-FAM are cleaved; also recorded: did not cleave |
| FAP on cancer associated fibroblasts (CAFs) from NSCLC patient samples |  |  |  |  | cleavage of FRET probe on a CAF monolayer (fluorescence 480/530 nm, one hour) [7]: FAP3 was cleaved by FAP^+CAFs, with inhibition of signal when co-incubated with Val-boroPro |
| MMP-13 (recombinant enzyme) |  |  |  |  | cleavage of FRET probe by recombinant enzyme (fluorescence) [7]: demonstrating no activity |

Second part, led by results:

| cleavage by rhFAP [6] | signal (relative fluorescence intensity) with rhFAP [6] | FAP specificity (over PREP) [6] | Compound | cleavage by rhPREP [5] | further results |
| --- | --- | --- | --- | --- | --- |
|  | reduced signal | FAP specificity over PREP | Lys(MethylRed)-(D)Ala-Pro-Ser-Lys(5-FAM)-[Peg2-(D)Lys]3-NH2 [FAP2BD-Ala] |  |  |
| highest rate of cleavage |  | demonstrates FAP specificity | Lys(MethylRed)-(D)Ser-Pro-Ser-Lys(5-FAM)-[Peg2-(D)Lys]3-NH2 [FAP2CD-Ser] | without PREP cleavage | signal (relative fluorescence intensity) with rhFAP ([6]; listed as D-Ser): reduced signal; FAP specificity (over PREP) ([6]; listed as D-Ser): FAP specificity over PREP |
|  | reduced signal | FAP specificity over PREP | Lys(MethylRed)-(D)Thr-Pro-Ser-Lys(5-FAM)-[Peg2-(D)Lys]3-NH2 [FAP2DD-Thr] |  |  |
|  | reduced signal | FAP specificity over PREP | Lys(MethylRed)-(β)Ala-Pro-Ser-Lys(5-FAM)-[Peg2-(D)Lys]3-NH2 [FAP2Fβ-Ala] |  |  |
| FAP activity was absent |  |  | Lys(MethylRed)-Ala-Pro-Ser-Lys(5-FAM)-[Peg2-(D)Lys]3-NH2 [FAP2AAla] | is cleaved; also recorded: demonstrated cleavage by PREP |  |
| loss of FAP activity |  |  | Lys(MethylRed)-D-Tyr-Pro-Ser-Lys(5-FAM)-[Peg2-(D)Lys]3-NH2 [FAP2ED-Tyr] |  |  |
